Changes are numbered by the printed parent chain.
B1: unnamed (protein)
chain: MNFPRASRLMQAAVLGGLMAVSAAATAQTNPYARGPNPTAASLEASAGPFTVRSFTVSRPSGYGAGTVYYPTNAGGTVGAIAIVPGYTARQSSIKWWGPRLASHGFVVITIDTNSTLDQPESRSSQQMAALRQVASLNGTSSSPIYGKVDTARMGVMGWSMGGGGSLISAANNPSLKAAAAQAPWHSSTNFSSVTVPTLIFACENDSIAPVNSSALPIYDSMSRNAKQFLEINGGSHSCANSGNSNQALIGKKGVAWMKRFMDNDTRYSTFACENPNSTRVSDFRTANCS
B2: unnamed (protein)
chain: B1 chain with A181P
B3: unnamed (protein)
chain: B1 chain with E121S, A181P
B4: unnamed (protein)
chain: B1 chain with E121S, A181P, H186I
B5: unnamed (protein)
chain: B1 chain with E121D
B6: unnamed (protein)
chain: B1 chain with E121D, A181P, R280A

These proteins were tested on PET (assay: Proxy for plastic degradation [HPLC-UV]). Details: pH 9; 30 °C; 24 h.

| Protein | Proxy for plastic degradation |
| --- | --- |
| B1 | 10.6 µM |
| B2 | 18.8 µM |
| B3 | 10.4 µM |
| B4 | 1.3 µM |
| B5 | 13.4 µM |
| B6 | 22.2 µM |

Same assay, conditions: pH 9; 30 °C; 72 h

| Protein | Proxy for plastic degradation |
| --- | --- |
| B1 | 13.7 µM |
| B2 | 30.5 µM |
| B3 | 12.8 µM |
| B4 | 2.4 µM |
| B5 | 18.9 µM |
| B6 | 57.2 µM |

Same assay, conditions: pH 9; 40 °C; 24 h

| Protein | Proxy for plastic degradation |
| --- | --- |
| B1 | 13.9 µM |
| B2 | 38.7 µM |
| B3 | 8.7 µM |
| B4 | 1.2 µM |
| B5 | 18 µM |
| B6 | 69.8 µM |

Same assay, conditions: pH 9; 40 °C; 72 h

| Protein | Proxy for plastic degradation |
| --- | --- |
| B1 | 19.8 µM |
| B2 | 52.2 µM |
| B3 | 19.7 µM |
| B4 | 6.9 µM |
| B5 | 25.3 µM |
| B6 | 93.6 µM |

From the PETadex activity labels (doi:10.1021/acscatal.9b00568)
